{"source": "patent US20170290886", "system": "Recombinant GST-tagged MeCP2 protein (Prospec)", "data": [{"substance": "His-tagged PIAS1 protein", "values": [{"measurement": "MeCP2 SUMOylation (in vitro SUMOylation assay with purified proteins)", "value": "MeCP2 SUMOylation occurred when E1, E2, PIAS1 (the protein inhibitor of activated STAT1) and MeCP2 proteins were added"}]}]}
